Assay results as given in paper PMC10531710, “Overexpression of the First Peanut-Susceptible Gene, AhS5H1 or AhS5H2, Enhanced Susceptibility to Pst DC3000 in Arabidopsis” (International Journal of Molecular Sciences, 2023).

What was measured:
[1] = system: T1, O=C(O)c1ccccc1O; assay: purified protein; format: biochemical, Arachis hypogaea; conditions: 1 mM 2-oxoglutarate, 1 mM ascorbate, 0.4 mM FeSO4, 0.1 mg/mL catalase, 5 mM DTT, 50 mM phosphate pH 6.8, 40 °C, 30 min
T1 construct: full ORF 1014 bp, 338 residues as printed; modified pGEX (GST) vector with C-terminal 3xMyc; E. coli BL21(DE3); glutathione Sepharose purified; tag removal not mentioned

[2] = substrate: O=C(O)c1ccccc1O; assay: purified protein; format: biochemical, Arachis hypogaea; conditions: 1 mM 2-oxoglutarate, 1 mM ascorbate, 0.4 mM FeSO4, 0.1 mg/mL catalase, 5 mM DTT, 50 mM phosphate pH 6.8, 40 °C, 30 min

With AhS5H2 (Arachis hypogaea) the Km [1] was 190.52 ± 26.33 µM.

B1: AhS5H1 (Arachis hypogaea) (protein)
chain: MANTKPLLLADQVTNMKHIPLNFIRPLNDRPNLQNLQSSNDNNESIPIIDLQGLDEDNDASNRSQIIHNIGQACQDYGFFQIVNHGVPEDVVGKMMKVGKAFFDLPESERMKNYSDDPSKTTRLSTSFNVKTEKVANWRDFLRLHCHPLEDYIQEWPTNPPSFREDVGEYSKHMRKLSLKLLEAISESLGLEKDYMEKALGKHGQHMAINYYPPCPEPDLTYGLPAHADPNAITILLQNHVPGLQVLKDGHWVTVKHVPNTFIVNIGDQIQVISNDKYKSVLHRALVNCEKERMSIPTFYCPSPEALVGPAPQLIDQHNDPPKYTNFTYAEYYHKFWNRGLSKETCVDLFKV
notes: full ORF 1059 bp, 353 residues as printed; modified pGEX (GST) vector with C-terminal 3xMyc; E. coli BL21(DE3); glutathione Sepharose purified; tag removal not mentioned
Molecule B1 has a Km [2] of 44.72 ± 6.95 µM.
